Measurements published in patent US20210054088A1 (Eli Lilly, published 2021).
Read-outs that look alike come from different tables or passages of the source.

T1: hCD137** ((human CD137 amino acids 22-164, ΔC121S)-AAA-FLAG) (human, UniProt Q07011 22-164)
T1 construct: not shown: FLAG tag
T1 chain: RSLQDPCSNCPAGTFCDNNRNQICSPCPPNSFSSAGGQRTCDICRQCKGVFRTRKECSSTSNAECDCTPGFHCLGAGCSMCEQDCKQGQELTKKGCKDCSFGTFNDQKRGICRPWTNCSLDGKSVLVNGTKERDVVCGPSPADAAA

T2: FcγRIIa(H) (UniProt P12318 36-218, limits assumed)
T2 sequence (looked up): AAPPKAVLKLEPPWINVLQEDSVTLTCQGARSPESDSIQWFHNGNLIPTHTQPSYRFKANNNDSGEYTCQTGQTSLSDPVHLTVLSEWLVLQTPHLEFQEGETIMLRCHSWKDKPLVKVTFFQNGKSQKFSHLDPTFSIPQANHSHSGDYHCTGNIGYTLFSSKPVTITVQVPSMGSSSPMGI

T3: FcγRIIb (UniProt P31994 43-217, limits assumed)
T3 sequence (looked up): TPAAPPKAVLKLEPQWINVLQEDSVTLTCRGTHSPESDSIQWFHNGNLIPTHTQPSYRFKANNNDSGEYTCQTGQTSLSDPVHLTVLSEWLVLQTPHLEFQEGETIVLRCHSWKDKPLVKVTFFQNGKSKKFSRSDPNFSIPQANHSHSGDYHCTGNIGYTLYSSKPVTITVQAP


How the values were obtained:
[1] = target: T4, human CD137-ECD-C121S-Fc mutant Q67R (human, UniProt Q07011 24-186); assay: point ELISA, coated CD137-Fc mutant; mean of absorbance normalised to wild type over eight concentrations;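 further: antibody binding to plate-adsorbed CD137-Fc variants, detected with an HRP-labelled anti-Fab secondary antibody and TMB colour development read as absorbance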
T4 construct: not shown: Fc part

[2] = target: T5, human CD137-ECD-C121S-Fc mutant A97P (human, UniProt Q07011 24-186); assay: as above
T5 construct: not shown: Fc part

[3] = target: T6, human CD137-ECD-C121S-Fc mutant M101R (human, UniProt Q07011 24-186); assay: as above
T6 construct: not shown: Fc part

[4] = target: T7, human CD137-ECD-C121S-Fc mutant K115Q (human, UniProt Q07011 24-186); assay: as above
T7 construct: not shown: Fc part

[5] = target: T8, human CD137-ECD-C121S-Fc mutant G98K (human, UniProt Q07011 24-186); assay: as above
T8 construct: not shown: Fc part

[6] = target: T9, human CD137-ECD-C121S-Fc mutant Q67V (human, UniProt Q07011 24-186); assay: as above
T9 construct: not shown: Fc part

[7] = target: T10, human CD137-ECD-C121S-Fc mutant K114E (human, UniProt Q07011 24-186); assay: as above
T10 construct: not shown: Fc part

[8] = target: T11, human CD137-ECD-C121S-Fc mutant S100T (human, UniProt Q07011 24-186); assay: as above
T11 construct: not shown: Fc part

[9] = target: T12, human CD137-ECD-C121S-Fc mutant D63N (human, UniProt Q07011 24-186); assay: as above
T12 construct: not shown: Fc part

[10] = target: T13, human CD137-ECD-C121S-Fc mutant Q104K (human, UniProt Q07011 24-186); assay: as above
T13 construct: not shown: Fc part

[11] = target: T14, human CD137-ECD-C121S-Fc mutant G98Q (human, UniProt Q07011 24-186); assay: as above
T14 construct: not shown: Fc part

[12] = target: T15, human CD137-ECD-C121S-Fc mutant P27L (human, UniProt Q07011 24-186); assay: as above
T15 construct: not shown: Fc part

[13] = target: T16, human CD137-ECD-C121S-Fc mutant N42S (human, UniProt Q07011 24-186); assay: point ELISA on coated CD137-Fc mutant; % of binding relative to wild-type hCD137
T16 construct: not shown: Fc part

[14] = target: T1, hCD137** (human CD137 amino acids …); assay: ELISA, coated hCD137**, anti-Fab detection
Procedure: The wells of a 96 well Immulon® 4HBX ELISA plate are coated overnight with 50 nanograms of hCD137** in 100 microliters of PBS, pH 7.2 with mild agitation at 4° C. […] The wells treated with the anti-CD137 antibodies are then washed and a 1:10000 dilution of HRP-conjugated goat anti-Fab antibody (Jackson ImmunoResearch Laboratories) is added and incubated at room temperature following standard protocol. The wells treated with hCD137L* are then washed and a 1:5000 dilution of HRP-conjugated mouse anti-His antibody (Sigma-Aldrich®) is added and the plates are incubated at room temperature following standard protocol. TMB peroxidase chromogenic substrate and stop solution are used according to manufacturer's instruction for visualization and detection of signals. Absorbance readings are plotted in GraphPad Prism Software Version 6. EC₅₀ values are calculated by nonlinear regression curve fit analysis of the software's One Site-Specific Binding function.

[15] = target: human CD137 on stably transfected human 293 cells (human, UniProt Q07011 24-255); assay: cell-based or functional assay
[16] = target: T17, Recombinant human extracellular CD137-Fc protein (R&D Systems) (human, UniProt Q07011 24-186); assay: SPR (Biacore T200), CD137-Fc immobilised, 25° C., 1:1 Langmuir fit
T17 construct: Bought protein; also called human CD137-Fc; not shown: Fc part of the bought fusion protein

[17] = target: T16, human CD137-ECD-C121S-Fc mutant N42S; assay: point ELISA, coated CD137-Fc mutant; mean of absorbance normalised to wild type over eight concentrations;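 further: antibody binding to plate-adsorbed CD137-Fc variants, detected with an HRP-labelled anti-Fab secondary antibody and TMB colour development read as absorbance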
Procedure: (§1) To determine the impact of a mutation on the binding of the antibodies, a point ELISA assay against CD137-Fc wild type and mutants is utilized. The wells of a 96-well Immulon 4HBX ELISA plate are coated overnight with 50 nanograms of human CD137-ECD-C121S-Fc or its mutants in 100 microliters of PBS, pH 7.2 with mild agitation at 4° C. […] The wells are washed and a HRP-conjugated secondary antibody (1:10000 dilution of HRP-conjugated goat anti-Fab antibody (Jackson ImmunoResearch Laboratories) is added and incubated at room temperature following standard protocol. TMB peroxidase chromogenic substrate and stop solution are used according to manufacturer's instruction for visualization and detection of signals. Absorbance readings for each concentration point is normalized by the absorbance of the wild-type interaction. For each mutant, the mean of the normalized ratio for the eight concentrations is determined.

[18] = target: T18, cynomolgus monkey CD137 on stably transfected human 293 cells (cynomolgus monkey, UniProt A9YYE7 24-254); assay: flow cytometry on 293 cells expressing cynomolgus monkey CD137, antibody at 0.5 micrograms/mL; MFI of antibody / MFI of control IgG
T18 construct: whole, on cells; also called Cyno-CD137
Source text: The ability of the antibodies disclosed herein to bind to cell surface cynomolgus monkey CD137 can be measured using a flow cytometric assay. Cynomolgus monkey CD137 expressing stable cells are generated by transfecting Cyno-CD137 receptor plasmid DNA into human 293 cells (ATCC) using Lipofectamine™ 2000 reagent (Invitrogen™) per manufacturer's protocol. Stable cells are selected using 0.5 micrograms/mL puromycin in Dulbecoo's Modified Eagle's Medium containing 10% fetal bovine serum and 1% GlutaMAX™. For flow cytometry, confluent adherent cells are detached using Gibco® Cell Dissociation Buffer (Life Technologies), blocked in FACS buffer (phosphate buffered saline containing 3% fetal bovine serum) for 1 h at 4° C., and then transferred into a 96-well round-bottom plate at a density of 1×10⁵ cells/well.
After washing in FACS buffer, secondary antibody R-phycoerythrin conjugated goat anti-human IgG, F(ab′)₂ fragment specific antibody (Jackson ImmunoResearch Laboratories) is added at a 1:200 dilution and cells are incubated at 4° C. for 30 minutes. Cells are washed and live/dead cell staining is performed using LIVE/DEAD® Fixable Far Red Dead Cell Stain kit (Life Technologies) per manufacturer's protocol. […] Flow cytometry data is analyzed using FlowJo® Software. Mean fluorescence intensity (MFI) ratio is calculated as the (MFI of Experimental antibody)/(MFI of the control IgG).

FcγRIIIa(V) = FcγRIIIa(V) (UniProt P08637 17-208, limits assumed); assay: MSD assay, Fcγ receptor coated
Procedure: (§2) Briefly, Fcγ receptors are coated onto a Meso Scale plate overnight and serially diluted test antibodies are added to the plate and incubated for 2 h. […] Luminescence is measured on a SECTOR Imager 2400 (Meso Scale Diagnostics) and data is analyzed using GraphPad Prism 7.0 software.

FcγRIIa(H) = target: T2, FcγRIIa(H); assay: MSD assay, Fcγ receptor coated
Procedure: as §2

FcγRIIIa(F) = FcγRIIIa(F) (UniProt P08637 17-208, limits assumed); assay: MSD assay, Fcγ receptor coated
Procedure: as §2

FcγRIIb = target: T3, FcγRIIb; assay: MSD assay, Fcγ receptor coated
Procedure: as §2

FcγRI = FcγRI (UniProt P12314 16-288, limits assumed); assay: MSD assay, Fcγ receptor coated
Procedure: as §2

[19] = target: T17, Recombinant human extracellular …; assay: ELISA, coated human CD137-Fc
Procedure: The ability of the antibodies disclosed herein to bind human CD137 can be measured by ELISA. […] Wells are blocked for 2 h with blocking buffer (PBS containing 0.2% bovine serum albumin and 0.05% Tween-20). Wells are washed three times with PBS containing 0.05% Tween-20. […] After washing, the plate is incubated with 100 microliters of goat anti-human IgG F(ab′)2-HRP conjugate (Jackson Immuno Research Laboratories) at room temperature for 45 minutes. The plates are washed and then incubated with 100 microliters of 3,3′, 5,5′-tetra-methylbenzidine. The absorbance at 650 nm is read on a SpectraMax® microplate reader. The half maximal effective concentration (EC₅₀) is calculated using GraphPad Prism 7 software.

Human C1q = Human C1q (human, UniProt P02745 23-245; P02746 28-253; P02747 29-245); assay: ELISA, antibody coated, human C1q added
Procedure: Human C1q in casein buffer is added at a concentration of 10 milligrams/mL and incubated for 2 hrs. Human C1q is detected by incubating the plates with anti-human C1q-HRP (AbD Serotec Inc., 1:200 dilution) for 1 h and the plate is developed using TMB (KPL, Inc.). Absorbance is measured at 450 nm with Synergy Neo2 hybrid multi-mode reader (BioTek®).

[20] = target: T7, human CD137-ECD-C121S-Fc mutant K115Q; assay: point ELISA, coated CD137-Fc mutant; mean of absorbance normalised to wild type over eight concentrations; remark: listed apart in the source
Procedure: as §1

[21] = target: T19, human CD137-ECD-C121S-Fc mutant R134Q (human, UniProt Q07011 24-186); assay: as above
T19 construct: not shown: Fc part

[22] = target: T20, human CD137-ECD-C121S-Fc mutant R130A (human, UniProt Q07011 24-186); assay: as above
T20 construct: not shown: Fc part

[23] = target: T21, human CD137-ECD-C121S-Fc mutant I132V (human, UniProt Q07011 24-186); assay: as above
T21 construct: not shown: Fc part

[24] = target: T22, human CD137-ECD-C121S-Fc mutant R130H (human, UniProt Q07011 24-186); assay: as above
T22 construct: not shown: Fc part
T22 sequence (Q07011 24-186 C121S/R130H): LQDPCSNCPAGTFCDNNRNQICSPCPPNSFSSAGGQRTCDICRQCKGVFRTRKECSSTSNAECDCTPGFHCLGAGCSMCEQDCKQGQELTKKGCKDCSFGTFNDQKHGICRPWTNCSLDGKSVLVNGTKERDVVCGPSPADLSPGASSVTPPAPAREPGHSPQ

T7 sequence (Q07011 24-186 K115Q/C121S): as the sequence (Q07011 24-186 C121S/R130H) above, with K92Q, H107R counted along it
human CD137 on stably transfected human 293 cells, sequence (Q07011 24-255 limits assumed): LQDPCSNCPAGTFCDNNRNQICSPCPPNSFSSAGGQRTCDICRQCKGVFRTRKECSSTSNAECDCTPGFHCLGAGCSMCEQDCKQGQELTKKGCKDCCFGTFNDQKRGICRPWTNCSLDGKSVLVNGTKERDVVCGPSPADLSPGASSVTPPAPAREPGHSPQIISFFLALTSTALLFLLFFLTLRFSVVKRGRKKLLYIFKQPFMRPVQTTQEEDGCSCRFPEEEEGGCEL
T10 sequence (Q07011 24-186 K114E/C121S): as the sequence (Q07011 24-186 C121S/R130H) above, with K91E, H107R counted along it
T14 sequence (Q07011 24-186 G98Q/C121S): as the sequence (Q07011 24-186 C121S/R130H) above, with G75Q, H107R counted along it
T11 sequence (Q07011 24-186 S100T/C121S): as the sequence (Q07011 24-186 C121S/R130H) above, with S77T, H107R counted along it
T4 sequence (Q07011 24-186 Q67R/C121S): as the sequence (Q07011 24-186 C121S/R130H) above, with Q44R, H107R counted along it
T16 sequence (Q07011 24-186 N42S/C121S): as the sequence (Q07011 24-186 C121S/R130H) above, with N19S, H107R counted along it
T9 sequence (Q07011 24-186 Q67V/C121S): as the sequence (Q07011 24-186 C121S/R130H) above, with Q44V, H107R counted along it
T15 sequence (Q07011 24-186 P27L/C121S): as the sequence (Q07011 24-186 C121S/R130H) above, with P4L, H107R counted along it
T13 sequence (Q07011 24-186 Q104K/C121S): as the sequence (Q07011 24-186 C121S/R130H) above, with Q81K, H107R counted along it
T6 sequence (Q07011 24-186 M101R/C121S): as the sequence (Q07011 24-186 C121S/R130H) above, with M78R, H107R counted along it
T12 sequence (Q07011 24-186 D63N/C121S): as the sequence (Q07011 24-186 C121S/R130H) above, with D40N, H107R counted along it
T8 sequence (Q07011 24-186 G98K/C121S): as the sequence (Q07011 24-186 C121S/R130H) above, with G75K, H107R counted along it
T18 sequence (A9YYE7 entry or part of it): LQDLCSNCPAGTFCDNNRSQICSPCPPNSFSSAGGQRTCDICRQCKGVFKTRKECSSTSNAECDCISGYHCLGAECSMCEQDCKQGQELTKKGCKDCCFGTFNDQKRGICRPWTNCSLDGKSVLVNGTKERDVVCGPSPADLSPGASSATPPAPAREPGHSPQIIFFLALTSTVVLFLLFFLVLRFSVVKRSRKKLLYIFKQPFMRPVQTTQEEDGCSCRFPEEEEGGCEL
T5 sequence (Q07011 24-186 A97P/C121S): as the sequence (Q07011 24-186 C121S/R130H) above, with A74P, H107R counted along it
FcγRI, sequence (P12314 16-288 limits assumed): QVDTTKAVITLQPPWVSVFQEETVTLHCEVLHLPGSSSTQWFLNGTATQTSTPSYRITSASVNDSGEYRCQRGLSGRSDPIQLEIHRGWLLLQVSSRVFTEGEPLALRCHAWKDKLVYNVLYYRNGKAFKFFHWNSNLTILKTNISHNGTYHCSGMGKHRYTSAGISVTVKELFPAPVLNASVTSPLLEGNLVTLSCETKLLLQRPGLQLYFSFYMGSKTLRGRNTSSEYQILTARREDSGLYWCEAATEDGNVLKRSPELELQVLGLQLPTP
FcγRIIIa(F), sequence (P08637 17-208 limits assumed): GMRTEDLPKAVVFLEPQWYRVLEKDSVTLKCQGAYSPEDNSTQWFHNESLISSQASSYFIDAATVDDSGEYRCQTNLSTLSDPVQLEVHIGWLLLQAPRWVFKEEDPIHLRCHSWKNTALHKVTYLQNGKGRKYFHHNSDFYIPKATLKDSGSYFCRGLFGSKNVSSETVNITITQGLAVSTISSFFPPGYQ
T20 sequence (Q07011 24-186 C121S/R130A): as the sequence (Q07011 24-186 C121S/R130H) above, with H107A counted along it
T19 sequence (Q07011 24-186 C121S/R134Q): as the sequence (Q07011 24-186 C121S/R130H) above, with H107R, R111Q counted along it
T21 sequence (Q07011 24-186 C121S/I132V): as the sequence (Q07011 24-186 C121S/R130H) above, with H107R, I109V counted along it
FcγRIIIa(V), sequence (P08637 17-208 F176V limits assumed): as the sequence (P08637 17-208 limits assumed) above, with F160V counted along it
Human C1q, sequence (P02745 23-245 limits assumed, chain 1 of 3): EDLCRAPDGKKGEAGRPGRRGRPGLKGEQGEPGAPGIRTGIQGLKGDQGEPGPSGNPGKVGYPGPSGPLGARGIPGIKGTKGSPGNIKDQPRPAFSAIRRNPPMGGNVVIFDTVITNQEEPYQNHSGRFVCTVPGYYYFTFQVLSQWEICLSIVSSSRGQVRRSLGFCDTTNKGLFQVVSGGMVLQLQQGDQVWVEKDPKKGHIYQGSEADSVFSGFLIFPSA
Human C1q, sequence (P02746 28-253 limits assumed, chain 2 of 3): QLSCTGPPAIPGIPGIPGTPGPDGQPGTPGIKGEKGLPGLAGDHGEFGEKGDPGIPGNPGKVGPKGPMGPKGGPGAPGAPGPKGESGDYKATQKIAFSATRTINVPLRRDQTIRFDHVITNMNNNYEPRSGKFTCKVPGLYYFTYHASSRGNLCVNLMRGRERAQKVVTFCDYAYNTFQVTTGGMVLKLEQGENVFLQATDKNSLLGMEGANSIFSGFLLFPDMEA
Human C1q, sequence (P02747 29-245 limits assumed, chain 3 of 3): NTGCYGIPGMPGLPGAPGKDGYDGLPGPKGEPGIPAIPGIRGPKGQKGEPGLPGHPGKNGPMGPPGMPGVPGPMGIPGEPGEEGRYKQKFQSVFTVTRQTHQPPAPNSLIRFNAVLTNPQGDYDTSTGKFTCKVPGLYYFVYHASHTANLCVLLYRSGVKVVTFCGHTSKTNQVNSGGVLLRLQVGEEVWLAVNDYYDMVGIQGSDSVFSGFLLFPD

Binder | % of binding relative to wild-type hCD137 [1] [%] | % of binding relative to wild-type hCD137 [2] [%] | % of binding relative to wild-type hCD137 [3] [%] | % of binding relative to wild-type hCD137 [4] [%] | % of binding relative to wild-type hCD137 [5] [%] | % of binding relative to wild-type hCD137 [6] [%] | % of binding relative to wild-type hCD137 [7] [%] | % of binding relative to wild-type hCD137 [8] [%] | % of binding relative to wild-type hCD137 [9] [%] | % of binding relative to wild-type hCD137 [10] [%] | % of binding relative to wild-type hCD137 [11] [%] | % of binding relative to wild-type hCD137 [12] [%] | EC50 [14] [nM] | max activity, NF-kappaB luciferase reporter [15] [%] | Kd [16] [nM] | koff [16] [s⁻¹] | kon [16] [M⁻¹ s⁻¹] | MFI ratio [18] | further results
BMS20H4.9 (antibody, human IgG4 S228P, kappa, V domains shown, Comparator anti-CD137 antibody, previously described in U.S. Pat. No. 7,288,638) VH: QVQLQQWGAGLLKPSETLSLTCAVYGGSFSGYYWSWIRQSPEKGLEWIGEINHGGYVTYNPSLESRVTISVDTSKNQFSLKLSSVTAADTAVYYCARDYGPGNYDWYFDLWGRGTLVTVSS VL: EIVLTQSPATLSLSPGERATLSCRASQSVSSYLAWYQQKPGQAPRLLIYDASNRATGIPARFSGSGSGTDFTLTISSLEPEDFAVYYCQQRSNWPPALTFGGGTKVEIKR | 100 | 100 | 100 | 100 | 100 | 100 | 100 | 100 | 100 | 100 | 100 | 85 | 0.43 | 115 | – | – | – | – | binding result [13]: no binding
Antibody A1 (antibody, human IgG1, kappa, Full length form; IgG1 Fc-null, kappa) heavy: not shown light: AIRMTQSPPSLSASVGDRVTITCQASQDIGNSLGWYQQKPGKAPKLVIFDASDLETGVPSRFSGSGSGTDFSLTISSLQPEDFATYYCQQGNSFPLTFGQGTRLEIKRTVAAPSVFIFPPSDEQLKSGTASVVCLLNNFYPREAKVQWKVDNALQSGNSQESVTEQDSKDSTYSLSSTLTLSKADYEKHKVYACEVTHQGLSSPVTKSFNRGEC | – | – | – | – | – | – | – | – | – | – | – | – | – | 63.4 | 3.33 | 0.00536 | 1.61e+06 | – | –
Antibody A2 (antibody, human IgG1, kappa, Form lacking the N-terminal alanine of the light chain; IgG1 Fc-null, kappa) heavy: not shown light: IRMTQSPPSLSASVGDRVTITCQASQDIGNSLGWYQQKPGKAPKLVIFDASDLETGVPSRFSGSGSGTDFSLTISSLQPEDFATYYCQQGNSFPLTFGQGTRLEIKRTVAAPSVFIFPPSDEQLKSGTASVVCLLNNFYPREAKVQWKVDNALQSGNSQESVTEQDSKDSTYSLSSTLTLSKADYEKHKVYACEVTHQGLSSPVTKSFNRGEC | – | – | – | – | – | – | – | – | – | – | – | – | – | 72.3 | 5.36 | 0.00713 | 1.33e+06 | – | –
Antibody A1/2 (antibody, human IgG1, kappa, Human IgG1 Fc-null, kappa; also called Antibody 1/2) heavy: not shown light: IRMTQSPPSLSASVGDRVTITCQASQDIGNSLGWYQQKPGKAPKLVIFDASDLETGVPSRFSGSGSGTDFSLTISSLQPEDFATYYCQQGNSFPLTFGQGTRLEIKRTVAAPSVFIFPPSDEQLKSGTASVVCLLNNFYPREAKVQWKVDNALQSGNSQESVTEQDSKDSTYSLSSTLTLSKADYEKHKVYACEVTHQGLSSPVTKSFNRGEC | 100 | 15 | 100 | 25 | 85 | 100 | 20 | 100 | 100 | 100 | 100 | 100 | 1.4 | – | 4.67 | 0.00711 | 1.52e+06 | 153 | % of binding relative to wild-type hCD137 [17]: 100%; EC50 (FcγRIIIa(V)): > 134 nM; EC50 (FcγRIIa(H)): > 134 nM; EC50 (FcγRIIIa(F)): > 134 nM; EC50 (FcγRIIb): > 134 nM; EC50 (FcγRI): > 5 nM; EC50 [19]: 0.027 nM; EC50 (Human C1q): > 330 nM; % of binding relative to wild-type hCD137 [20]: 25%; % of binding relative to wild-type hCD137 [21]: 100%; % of binding relative to wild-type hCD137 [22]: 100%; % of binding relative to wild-type hCD137 [23]: 100%; % of binding relative to wild-type hCD137 [24]: 100%
PF83 (antibody, V domains shown, Comparator anti-CD137 antibody, previously described in U.S. Pat. No. 8,337,850) VH: EVQLVQSGAEVKKPGESLRISCKGSGYSFSTYWISWVRQMPGKGLEWMGKIYPGDSYTNYSPSFQGQVTISADKSISTAYLQWSSLKASDTAMYYCARGYGIFDYWGQGTLVTVSS VL: SYELTQPPSVSVSPGQTASITCSGDNIGDQYAHWYQQKPGQSPVLVIYQDKNRPSGIPERFSGSNSGNTATLTISGTQAMDEADYYCATYTGFGSLAVFGGGTKLTVLG | – | – | – | – | – | – | – | – | – | – | – | – | – | – | – | – | – | 37 | –
